Legend:
[1] = molecular target: Recombinant, his tagged full length human frataxin protein (Abcam ab95502) (human) (UniProt Q16595); experiment: Simoa sandwich 3-step; capture Ab-5
[2] = molecular target: Recombinant, his tagged full length human frataxin protein (Abcam ab95502) (human) (UniProt Q16595); experiment: Simoa sandwich 3-step; capture Ab-2
[3] = molecular target: Recombinant, his tagged full length human frataxin protein (Abcam ab95502) (human) (UniProt Q16595); experiment: Simoa sandwich 2-step; capture Ab-4
[4] = molecular target: Recombinant, his tagged full length human frataxin protein (Abcam ab95502) (human) (UniProt Q16595); experiment: Simoa sandwich 3-step; capture Ab-4
[5] = molecular target: Recombinant, his tagged full length human frataxin protein (Abcam ab95502) (human) (UniProt Q16595); experiment: Simoa sandwich 3-step; capture Ab-2; frataxin 100 pg/mL
[6] = molecular target: Recombinant, his tagged full length human frataxin protein (Abcam ab95502) (human) (UniProt Q16595); experiment: Simoa sandwich 2-step; capture Ab-4; frataxin 100 pg/mL
[7] = molecular target: Recombinant, his tagged full length human frataxin protein (Abcam ab95502) (human) (UniProt Q16595); experiment: Simoa sandwich 3-step; capture Ab-4; frataxin 100 pg/mL
[8] = molecular target: Recombinant, his tagged full length human frataxin protein (Abcam ab95502) (human) (UniProt Q16595); experiment: Simoa sandwich 2-step; capture Ab-1; frataxin 167 pg/mL
[9] = molecular target: Recombinant, his tagged full length human frataxin protein (Abcam ab95502) (human) (UniProt Q16595); experiment: Simoa sandwich 2-step; capture Ab-2; frataxin 167 pg/mL
[10] = molecular target: Recombinant, his tagged full length human frataxin protein (Abcam ab95502) (human) (UniProt Q16595); experiment: Simoa sandwich 3-step; capture Ab-2; frataxin 1000 pg/mL
[11] = molecular target: Recombinant, his tagged full length human frataxin protein (Abcam ab95502) (human) (UniProt Q16595); experiment: Simoa sandwich 3-step; capture Ab-1; frataxin 1000 pg/mL
[12] = molecular target: Recombinant, his tagged full length human frataxin protein (Abcam ab95502) (human) (UniProt Q16595); experiment: Simoa sandwich 2-step; capture Ab-1; frataxin 18.5 pg/mL
[13] = molecular target: Recombinant, his tagged full length human frataxin protein (Abcam ab95502) (human) (UniProt Q16595); experiment: Simoa sandwich 2-step; capture Ab-2; frataxin 55.6 pg/mL
[14] = molecular target: Recombinant, his tagged full length human frataxin protein (Abcam ab95502) (human) (UniProt Q16595); experiment: Simoa sandwich 2-step; capture Ab-1; 50 pM SβG; frataxin 500 pg/mL
[15] = molecular target: Recombinant, his tagged full length human frataxin protein (Abcam ab95502) (human) (UniProt Q16595); experiment: Simoa sandwich; capture Ab-1; no helper beads; frataxin 55.6 pg/mL
[16] = molecular target: Recombinant, his tagged full length human frataxin protein (Abcam ab95502) (human) (UniProt Q16595); experiment: Simoa sandwich 2-step; capture Ab-1; 150 pM SβG; frataxin 6.17 pg/mL
[17] = molecular target: Recombinant, his tagged full length human frataxin protein (Abcam ab95502) (human) (UniProt Q16595); experiment: Simoa sandwich 2-step; capture Ab-1; 150 pM SβG; frataxin 0.686 pg/mL
[18] = molecular target: Recombinant, his tagged full length human frataxin protein (Abcam ab95502) (human) (UniProt Q16595); experiment: Simoa sandwich 2-step (120 min-5 min); capture Ab-1; Diluent 1 + 5% NCS
[19] = molecular target: Recombinant, his tagged full length human frataxin protein (Abcam ab95502) (human) (UniProt Q16595); experiment: Simoa sandwich 2-step (35 min-5 min); capture Ab-1; with helper beads; frataxin 6.17 pg/mL
[20] = molecular target: Recombinant, his tagged full length human frataxin protein (Abcam ab95502) (human) (UniProt Q16595); experiment: Simoa sandwich 2-step (120 min-5 min); capture Ab-1; Diluent 1 + 5% NCS; frataxin 111 pg/mL
[21] = molecular target: Recombinant, his tagged full length human frataxin protein (Abcam ab95502) (human) (UniProt Q16595); experiment: Simoa sandwich 2-step (120 min-5 min); capture Ab-1; Diluent 1 + 5% NCS; frataxin 333 pg/mL
[22] = molecular target: Recombinant, his tagged full length human frataxin protein (Abcam ab95502) (human) (UniProt Q16595); experiment: Simoa sandwich 2-step (120 min-5 min); capture Ab-1; Diluent 1 + 10% NCS; frataxin 111 pg/mL
[23] = molecular target: Recombinant, his tagged full length human frataxin protein (Abcam ab95502) (human) (UniProt Q16595); experiment: Simoa sandwich 2-step (120 min-5 min); capture Ab-1; Diluent 1 + 5% NCS; frataxin 12.3 pg/mL
[24] = molecular target: Recombinant, his tagged full length human frataxin protein (Abcam ab95502) (human) (UniProt Q16595); experiment: Simoa sandwich 2-step (120 min-5 min); capture Ab-1; Diluent 1 + 5% NCS; frataxin 0.823 pg/mL
[25] = molecular target: Recombinant, his tagged full length human frataxin protein (Abcam ab95502) (human) (UniProt Q16595); experiment: Simoa sandwich 2-step (120 min-5 min); capture Ab-1; Diluent 1 + 10% NCS; frataxin 22.2 pg/mL
[26] = molecular target: Recombinant, his tagged full length human frataxin protein (Abcam ab95502) (human) (UniProt Q16595); experiment: Simoa sandwich 2-step (120 min-5 min); capture Ab-1; Diluent 1 + 10% NCS; frataxin 12.3 pg/mL

UniProt Q16595, sequence (Q16595 42-210): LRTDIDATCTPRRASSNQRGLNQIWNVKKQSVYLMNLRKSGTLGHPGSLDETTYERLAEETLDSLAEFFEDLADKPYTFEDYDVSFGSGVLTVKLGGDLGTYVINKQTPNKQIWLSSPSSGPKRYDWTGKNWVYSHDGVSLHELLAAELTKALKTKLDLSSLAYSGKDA

Ab-3, mouse monoclonal [18A5DB1] to Frataxin (Abcam ab110328) (antibody)
LOD [1]: 1.73 pg/mL
LOD [2]: 1.33 pg/mL
LOD [3]: 0.34 pg/mL
LOD [4]: 1.09 pg/mL
Ave AEB [5]: 2.03 AEB
S/B [5]: 45.8
Ave AEB [6]: 8.49 AEB
S/B [6]: 69.3
Ave AEB [7]: 2.79 AEB
S/B [7]: 23.8
Ave AEB [8]: 15.1 AEB
S/B [8]: 145
Ave AEB [9]: 14.1 AEB
S/B [9]: 148
Ave AEB [10]: 17.2 AEB
S/B [10]: 388
Ave AEB [11]: 17.4 AEB
S/B [11]: 352
Ave AEB [12]: 1.98 AEB
S/B [12]: 19.1
Ave AEB [13]: 5.21 AEB
S/B [13]: 54.6
Ave AEB [14]: 13.7 AEB
S/B [14]: 747
AEB Rep1 [15]: 1.16 AEB
AEB Rep2 [15]: 0.608 AEB
Ave AEB [15]: 0.885 AEB
S/B [15]: 39.1
Ave AEB [16]: 0.521 AEB
S/B [16]: 11.6
Ave AEB [17]: 0.0717 AEB
S/B [17]: 1.6
LOD [18]: 0.268 pg/mL
AEB Rep1 [19]: 0.387 AEB
AEB Rep2 [19]: 0.399 AEB
Ave AEB [19]: 0.393 AEB
S/B [19]: 16.1
Ave AEB [20]: 1.02 AEB
S/B [20]: 93.1
Ave AEB [21]: 3.06 AEB
S/B [21]: 279
Ave AEB [22]: 0.515 AEB
S/B [22]: 48
Ave AEB [23]: 0.123 AEB
S/B [23]: 11.2
Ave AEB [24]: 0.0324 AEB
S/B [24]: 1.79
Ave AEB [25]: 0.2 AEB
S/B [25]: 11
Ave AEB [26]: 0.0631 AEB
S/B [26]: 5.87

— patent publication US20220308072A1
